The stoichiometry N is the number of molecules, sites or subunits per partner or assembly.

Consider 1 substance from publication PMC11490885.

For this assay, the target named is hβ3-ICL-del 1D4 (human GABAA receptor β3 subunit, intracellular loop deleted, homomeric receptor) (human). The assay is described as follows: native MS; purified β3-ICL-del receptor, buffer exchanged into 200 mM ammonium acetate pH 8, 0.08 mM DMNG; static nanospray, Q-Exactive EMR; unlabeled receptor seen as a single species; pentamer.

As for “hβ3-ICL-del 1D4 (human GABAA receptor β3 subunit, intracellular loop deleted, homomeric receptor)”, the stoichiometry N worked out at 5.
